Results published in article doi:10.1101/2021.10.11.463904 (bioRxiv, 2021).
Where two headings read alike, the source gives them in different places. Ends that are not written are not given here. * marks the point of attachment. FITC = O=C1OC2(c3ccc(O)cc3Oc3cc(O)ccc32)c2ccc(NC(=S)*)cc21; Ahx = NCCCCCC(=O)O

Legend:
[1] = molecular target: FITC-Mature-1cys (Mus musculus) (UniProt P09535); experiment: fluorescence polarisation
[2] = molecular target: FITC-Mature-1cys (Mus musculus) (UniProt P09535); experiment: fluorescence polarisation; remark: listed apart in the source
BiP [3] = molecular target: T1, BiP (UniProt P20029 20-655); experiment: fluorescence polarisation
BiP [4] = molecular target: T1, BiP; experiment: fluorescence polarisation; remark: listed apart in the source
BiP [5] = molecular target: T1, BiP; experiment: fluorescence polarisation; remark: listed apart in the source
BSA = BSA (bovine (from the name BSA), UniProt P02769 25-607); experiment: fluorescence polarisation
dynamic light scattering = molecular target: the molecule itself; experiment: dynamic light scattering

T1 sequence (P20029 20-655): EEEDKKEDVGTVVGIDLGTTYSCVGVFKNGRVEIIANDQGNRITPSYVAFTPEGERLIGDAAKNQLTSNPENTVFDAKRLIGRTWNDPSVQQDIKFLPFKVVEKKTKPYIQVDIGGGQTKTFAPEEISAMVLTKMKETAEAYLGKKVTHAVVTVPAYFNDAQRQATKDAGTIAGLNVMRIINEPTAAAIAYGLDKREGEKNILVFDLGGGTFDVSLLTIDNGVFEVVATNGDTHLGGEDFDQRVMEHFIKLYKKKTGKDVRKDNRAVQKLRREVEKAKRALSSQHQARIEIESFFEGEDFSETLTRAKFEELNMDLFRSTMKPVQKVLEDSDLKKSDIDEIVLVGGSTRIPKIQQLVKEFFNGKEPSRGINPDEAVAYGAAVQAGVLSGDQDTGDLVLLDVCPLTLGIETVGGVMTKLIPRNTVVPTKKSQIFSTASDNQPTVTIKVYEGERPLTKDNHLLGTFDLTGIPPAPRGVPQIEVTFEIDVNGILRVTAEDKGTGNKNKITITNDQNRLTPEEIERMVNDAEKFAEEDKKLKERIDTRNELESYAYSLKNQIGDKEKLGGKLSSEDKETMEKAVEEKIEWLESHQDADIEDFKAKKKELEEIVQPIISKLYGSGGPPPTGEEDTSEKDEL
Chain of FITC-Mature-1cys (Mus musculus) (P09535 25-91): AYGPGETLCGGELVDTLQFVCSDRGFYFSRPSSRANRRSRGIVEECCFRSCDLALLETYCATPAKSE
Chain of BSA (P02769 25-607): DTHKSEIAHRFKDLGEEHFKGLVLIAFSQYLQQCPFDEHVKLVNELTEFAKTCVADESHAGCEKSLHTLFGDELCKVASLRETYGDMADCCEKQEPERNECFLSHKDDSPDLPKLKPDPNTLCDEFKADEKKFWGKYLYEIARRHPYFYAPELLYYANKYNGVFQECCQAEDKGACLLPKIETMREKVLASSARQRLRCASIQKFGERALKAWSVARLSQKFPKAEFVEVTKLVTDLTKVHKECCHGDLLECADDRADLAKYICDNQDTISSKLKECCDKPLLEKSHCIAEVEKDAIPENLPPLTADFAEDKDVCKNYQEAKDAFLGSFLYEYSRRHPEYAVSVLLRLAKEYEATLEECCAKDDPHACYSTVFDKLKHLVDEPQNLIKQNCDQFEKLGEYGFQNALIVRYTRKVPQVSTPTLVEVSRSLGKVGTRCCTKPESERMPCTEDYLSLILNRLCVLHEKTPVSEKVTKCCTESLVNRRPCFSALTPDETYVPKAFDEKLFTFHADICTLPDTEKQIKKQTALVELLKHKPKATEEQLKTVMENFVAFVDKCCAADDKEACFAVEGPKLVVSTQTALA

BiP (from UniProt P20029 20-655) (natural protein)
Kd [1]: 2.7 µM | Kd [2]: 9.7 µM

{FITC-Ahx}-EAKRHRPLIVLPPKDPAHG [FITC-E-peptide 151-169]
Kd (BiP [3]): 15 ± 1 µM

{FITC-Ahx}-QSAGRLRRGLPALLRARRG [FITC-E-peptide 121-139]
Kd (BiP [3]): 5.3 ± 0.6 µM

{FITC-Ahx}-DDFPRYPVGKFFQYDTWR [FITC-E-peptide 103-120]
Kd (BiP [3]): 0.95 ± 0.17 µM | Kd (BiP [4]): 13 ± 2 µM | Kd (BiP [5]): 0.46 ± 0.05 µM | Kd (BSA): 13 ± 2 µM

RDVC(FITC‑maleimide)TSQAVLPDDFPRYPVGKFFQYDTWRQSAGRLRRGLPALLRARRG (domain or fragment) [FITC-E-peptide 92-139]
Kd (BiP [3]): 0.52 ± 0.13 µM | Kd (BiP [4]): 1.9 ± 0.6 µM

B1: E-peptide (domain or fragment)
chain: RDVCTSQAVLPDDFPRYPVGKFFQYDTWRQSAGRLRRGLPALLRARRGRMLAKELKEFREAKRHRPLIVLPPKDPAHGGASSEMSSNHQ
binding result (dynamic light scattering): binds

RDVC(FITC‑maleimide)TSQAVLPDDFPRYPVGKFFQYDTWR (domain or fragment) [FITC-E-peptide 92-120]
Kd (BiP [3]): 0.67 ± 0.17 µM | Kd (BiP [4]): 8 ± 3.8 µM
